Values quoted from earlier work as cited in publication PMC2737186.

Molecular target: Cys1 (UniProt position 252, VVKNKCLAEGT)

In the case of “Mtu RecA intein (form studied by Shingledecker, Jiang and Paulus 2000) (Mycobacterium tuberculosis)”, the pKa is given as 8.2.
